In article PMC7595197:

Biological target: AtaT (G108D) (enterohemorrhagic E. coli O157:H7)
Test: crystal structure

**Q.** How did the stoichiometry N turn out when AtaT (G108D) (enzyme) was run?
**A.** Its stoichiometry N is 2.
